{"source": "the DeepSol protein solubility set"}
{"assay": "soluble on expression in E. coli; label from the status in PepcDB or PDB records"}
{"sequence": "MSKTFKDYGTGSGKDVIADEKPFSILLMGVDTGSSERTSKWEGNSDSMILVTVNPKTKKTTMTSLERDILVKLSGSKTNDQTGYDAKLNAAYAAGGAKMAIMTVQDMLDIKIDKYVQINMEGLVQLVDAVGGITVTNHFDFPISIEEHEPEFTASVEPGTHKINGEQALVYSRMRYDDPDGDYGRQKRQREVISKVLKKILALDSVSKYRKILSAVSKNMQTNIEISSSTIPKLLGYSDALKSIRTYQLKGEGTTIDGGSYQLVTSKELLKAQNRIKGQLGLKKSTAENLKTTASLYENFYGGDTSIYDSSSSASDYSSSGNYSGSSSDYGSSSSYGSNSSSGSSSDYSGQNSYNQGNYQQPAAGTGIGNLEHHHHHH", "soluble on expression in E. coli": "soluble"}
{"sequence": "MSKYKIFVDGAVGTTGLGIFERLRAAKDIELLTLADEQRKDLKARLANVAAADLTLLCLPDTASKQLVLHAPPSAKICDTSTAHRVDPAWVYGFAELSGQFNNIQTATRVAIPGCHATGYIALLRPLIERHYLNADYPFTCHSLTGYSGGGKAMIADYQAPIRDDKFKAPRMYGLTLHHKHLAEMCAFTGSSNPPIFTPIVADYYSGMLVNVPLPLAAFTQEANDGEKISGILADYYREASLINVHYVNDLPTDGMVAANSLAGKDRLDIFVYANQTQVVLSAIFDNLGKGASGAAIQCMNIMLGRDQLADLHI", "soluble on expression in E. coli": "not soluble"}
{"sequence": "MSLAAGFAPLADIPVGPDYVIGPGDRIILNLWGSAEGTHELEVNRSGEIVLPRVGSVKVWGITFERLPEVLKTHLSKIYKNFDLNVTMGKLRVIKVYVVGEVKMPGDYNLSPLSTLINALAASGGPLKTGTLRNIKIKRGGKVVETVDLYDFFLKGDKGKDIRLQPGDTIFVPVIGRVAGIAGNVKRPAIYELKDEKNLGDLVELAEGFLPTGYLQRVQITRVDAHDKRMVADFNIDPKGAGEGHHHHHH", "soluble on expression in E. coli": "not soluble"}
{"sequence": "MSLAARQTVTDVDSFSKELMTASPDLLGSMVKAFAEALMGAEVDGICNAEYGEISPERVNRRNGYRAREWDTRAGTIELAVPKLRQGSYFPEWLLTRRRRAEQALISVVATSYLLGVSTRRVDKLVEQLGVAHISKSQVSVLAKHLDTQVEAFRSRPLDAGPYRFVQADALTMKVREDGRVINVHCLLAVGVNGDGHREILGLDVVSSEDGAGWLAFFRGLVARGLSGVRLVTSDAHRGLVNAIGSTLPGASWQRCRTHYLRDLLTMTPKSSQPWVATLVRTVFDQADANEVGGQFDRVTEALSEKLPKAADHLSGAKADLLAFTTYPREVWRQIWSSNPQERLNKEIRRRTDVVGIFPDRDAIIRLVGAVLAEQHDEWIETHRYFGLEILAKVDATNKKSDTPEIGVTEGHHHHHH", "soluble on expression in E. coli": "soluble"}
{"sequence": "MSLADLFASPDDAAAGGAPDTAPLADRLRPRTLGDVVGQEHLTGPDGAIGRMVAAGRLSSIIFWGPPGTGKTTISRLLAHAVGMRFEPISAVFSGVADLKKVFAAAKDHARHGEKTLLFVDEIHRFNRAQQDSFLPFVENGTVTLVGATTENPSFELNAALLSRAQVLILRRLDAAALEQLLDRAEGLMERPLPLDPAAREALLASADGDGRFLLNQVETLYAIDIPEPLDPAGLSALLHRRVAVYDKDREGHYNLISALHKSLRGSDPQAALYYLARMLTAGEEPLYVLRRLVRFATEDIGLADPQAVVQCLAAKDAYDFLGSPEGELAIVQACLYCATAPKSNAAYMAMKASFRSARETGSLMPPMNIVNAPTKLMKQVGYGKNYQYDHDAAEGFSGANYWPEEMEAQTFYAPTDRGFEARVAERMAYWDRLRAERGEGHHHHHH", "soluble on expression in E. coli": "soluble"}
{"sequence": "MSLAELNFKAIEEKWQKRWLEAKIFEPNIRDKPKEKKFYITVAFPYLSGHLHVGHARTYTIPDVIARFKRMQGYNVLFPMAWHITGSPIVGIAERIKNRDPKTIWIYRDVYKVPEEILWTFEDPINIVKYFMKAAKETFIRAGFSVDWSREFYTTSLFPPFSKFIEWQFWKLKEKGYIVKGAHRVRWDPVVGTPLGDHDLMEGEDVPILDYIIIKFELRENGEVIYLPAATLRPETVYGVTNMWVNPNATYVKAKVRRKDKEETWIVSKEAAYKLSFQDREIEVIEEFKGEKLIGKYVRNPVSGDEVIILPAEFVDPDNATGVVMSVPAHAPFDHVALEDLKRETEILEKYDIDPRIVENITYISLIKLEGYGDFPAVEEVNKLGIKSQKDKEKLEQATKTIYKAEYHKGIFKVPPYEGKPVQEVKEAIAKEMLEKGIAEIMYEFAEKNVISRFGNRAVIKIIHDQWFIDYGNPEWKEKARKALERMKILPETRRAQFEAIIDWLDKKACARKIGLGTPLPWDPEWVIESLSDSTIYMAYYTISRHINKLRQEGKLDPEKLTPEFFDYIFLEEFSEDKEKELEKKTGIPAEIIHEMKEEFEYWYPLDWRCSGKDLIPNHLTFFIFNHVAIFREEHWPKGIAVNGFGTLEGQKMSKSKGNVLNFIDAIEENGADVVRLYIMSLAEHDSDFDWRRKEVGKLRKQIERFYELISQFAEYEVKGNVELKDIDRWMLHRLNKAIKETTNALEEFRTRTAVQWAFYSIMNDLRWYLRRTEGRDDEAKRYVLRTLADVWVRLMAPFTPHICEELWEKLGGEGFVSLAKWPEPVEEWWNETIEAEEEFIRSVMEDIKEIIEVAKIENAKRAYIYTAEDWKWKVAEVVSEKRDFKSSMEELMKDSEIRKHGKEVAKIVQKLIKERTFDVKRINEEKALREAKEFMEKELGIEIIINPTEDKGGKKKQAMPLKPAIFIEEGHHHHHH", "soluble on expression in E. coli": "not soluble"}
{"sequence": "MSLAEPIESGKQYVELTSAVPVAVPGKIEVIELFWYGCPHCYAFEPTINPWVEKLPSDVNFVRIPAMFGGPWDAHGQLFITLDTMGVEHKVHAAVFEAIQKGGKRLTDKNDMADFVATQGVNKDDFLKTFDSFAVKGKIAQYKELAKKYEVTGVPTMIVNGKYRFDLGSAGGPEKTLQVADQLIDKERAAAKAEGHHHHHH", "soluble on expression in E. coli": "soluble"}
{"sequence": "MSLAEPLTVSPELTANYAYFFDLDGTLAEIKPHPDQVVVPHKILQLLDRLAAHNAGALALISGRSMTELDALAKPFRFPLAGVHGAERRDISGKTHIVRLPEAVVREVEALLRSTLAALPGTELETKGMAFALHYRQAPEHEAALLALAQHVTQHWPQLALQPGKCVVEIKPKGTNKGEAIAAFMQEAPFTGRIPVFVGDDLTDEAGFGVVNHAGGISVKVGVGATQAAWRLESVPDVWRWLEQINYPQQEQQVMNNRRDGYESFSRSIEGHHHHHH", "soluble on expression in E. coli": "soluble"}
{"sequence": "MSLAEQKPGEGQKTAIKIGVMIDLSGPLTTYGNSIKNTLEIAKEDINAYLEEKGLPYTVEFYVEDTKVDPKIALEKIQSLHSKGINLVIGPMGSGEVSNIKGYVQSNKIIIISPSSTLLPSLLGITKPEDKKYIFRFVGTDDLQTDAITAELKDLGIKAVIITYTGNDWGKGLYETIKPKLDAAGIEIVGEPVEYPSPPPADFSPYIATLESKLNDALQKYDASEVAVVAFSYEEAATMLAQTKDDSPLLNVLWLGCDGTALSDKMLEVCDKASKVRMLSTLFESKGEAYEQLAKKYKERGFGDSPYQYALNAYDAAWVLVLSYIEVVKEKGSYDPDAMNAKIPEVTEKYSKGEYGVKPVSGYIKLNEWNDRASGDYAIYEVTQDCKWQTAGIWKFTENKIEWLEGHHHHHH", "soluble on expression in E. coli": "soluble"}
{"sequence": "MSLAFNYDEYLRVDKMPTQWCWGCGDGVVLKCIIRAIEKLGWNMDDVCLVSGIGCSGRMSSYVNCNTVHTTHGRAIAYATGIKLANPSKHVIVVSGDGDTLAIGGNHTIHGCRRNIDLTHIVINNFIYGLTNSQTSPTTPKGFYTVTAQFGNIDPNFDACELTKAAGASFVARGNVIEANKLENLIYKALAHKGYSFVDVFSNCHINLGRKNKMGEAVAMLDWIKNRVVDKAKFESMDFEERKDKFPTGILHEDNSQPEYCHAYEEVRRAAKEKRMVDLGALKEGHHHHHH", "soluble on expression in E. coli": "not soluble"}
{"sequence": "MSLAIRVVCISDTHDLKVDIPRGDILIHAGDLTDGGTVSDIQKQLDWLKEQPHPIKVVVAGNHDSWFDQKSRPEEDARSGAKPDMDGLIYLESGLTVQKVKGRTVNIFGVPDIPEIGPKEFAFQYATDNHPWLSKVPPQTDILVTHCPPKHHLDLGLGDSNLLREVWRVKPRLHVFGHVHCAYGKESVFFDNFQQTYERIMSRPRRGPILDFIPNEAWLDYLRFLAQGIHAVAWKWIMSGPGSNNGSLMVNAAQMKGNSGKVKSRAVVVEIEGHHHHHH", "soluble on expression in E. coli": "soluble"}
